The target of assay [1] is T1, MID1/PP2A complex (Homo sapiens, UniProt P78318).
T1 construct: endogenous in cells
T1 sequence (P78318 1-339): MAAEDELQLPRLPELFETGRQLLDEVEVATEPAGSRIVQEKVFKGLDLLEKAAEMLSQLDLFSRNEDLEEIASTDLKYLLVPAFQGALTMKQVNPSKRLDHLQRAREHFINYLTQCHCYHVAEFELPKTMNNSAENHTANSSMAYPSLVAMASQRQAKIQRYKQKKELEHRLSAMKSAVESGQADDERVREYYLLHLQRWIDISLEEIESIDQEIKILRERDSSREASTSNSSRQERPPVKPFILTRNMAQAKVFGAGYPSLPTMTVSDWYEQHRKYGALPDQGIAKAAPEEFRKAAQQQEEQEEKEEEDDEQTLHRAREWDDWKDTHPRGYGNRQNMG
As to the kind of experiment: hFused phosphorylation in cells co-expressing hFused and B-Box1, Western blot. It counts as cell-based. On the procedure:
8×10^5 cells were transfected with hFused-V5 (aa 1-1335) in presence and absence of MYC-B-BOX1 (aa 110-167 of the MID1 protein) using Qiagen polyfect transfection reagent according to the manufacturer's instructions. Cell pellets were resuspended in magic mix (48% urea, 15 mM Tris-HCl, 8.7% glycerin, 1% SDS, 0.004% Bromphenol Blue, 143 mM β-Mercaptoethanol). After sonification, cell lysate of cells expressing hFused and hFused together with B-Box1 was separated on a 6% SDS-gel (200 μg protein loaded in each lane), blotted on PVDF-membranes and incubated with anti-V5-antibody (1:3000). Secondary HRP-antimouse-antibody was diluted 1:2000.
A dominant-negative effect of the B-Box1-peptide leading to an inhibition of […] induced ubiquitination of microtubules-associated PP2A and resulting in a enrichment of microtubules-associated PP2A was shown previously.
Cell lysate of cells expressing only hFused (con) and hFused together with the B-Box1 (+B-Box1) was separated on an SDS-Page, blotted and incubated with an anti-V5-antibody. In order to stop all kinase and phosphatases directly after cell lysis, cells were lysed in an SDS- and urea-containing buffer.
(In general: In western blotting, separated proteins are transferred to a membrane and probed.)

The test system of assay [2] is patched gene. As to the kind of experiment: Patched-specific semiquantitative RT-PCR of HeLa cells. The conditions noted are these: compared to mock-transfected cells. The class given is cell-based. On the procedure:
One of the most important targets of the Gli3 transcription factor is the patched gene. In order to analyse HeLa cells for Gli3 activity after treatment with the different molecules, semiquantitative RT-PCR of cells overexpressing the B-Box1 and the α4 protein was carried out (FIG. 13). HeLa cells have previously been tested for Gli3-, Gli1 (another target of the Gli3 transcription factor) and patched-expression.

For assay [3], the target named is T2, α4 (Homo sapiens, UniProt P78318).
T2 construct: expressed in transfected cells; host or cells: L40 yeast strain
T2 sequence (P78318 1-339): T1 sequence (P78318 1-339)
The experiment in a line: Yeast two-hybrid interaction of MID1 constructs with α4. It counts as binding. On the procedure:
Yeast two-hybrid screening. For yeast two-hybrid screening, we cloned full-length MID1 cDNA into the pBTM116 vector. We then cotransfected this with a human fetal brain cDNA Matchmaker library in the pGAD10 vector (Clontech) into the L40 yeast strain. We plated the transformants on synthetic medium lacking histidine, leucine and tryptophan (his^− leu^− trp^−) and containing 3-amino-1,2,4, triazole, and incubated the plates at 30° C. for 5 days. We assayed his-positive colonies for β-galactosidase activity with a filter assay^47. We isolated plasmid DNA from β-galactosidase-positive clones and cotransfected this again into L40 yeast with MID1-pBTM116 and controls. We selected plasmids that produced growth on selective plates only in combination with MID1-pBTM116, which were assumed to code for MID1 interactors, and sequenced them.
Activity of β-galactosidase in yeast liquid cultures. We assayed cells for β-galactosidase activity by the o-nitrophenyl-β-D-galactopyranoside (ONPG) method^47.
MID1 is a multidomain protein harboring a RING finger, two B-boxes, a coiled-coil region, a fibronectin type III domain and a B30.2 domain^3—all of which are candidate regions for specific protein-protein interactions. To clarify which domain specifically binds α4, we tested several deletion mutants of MID1 for interaction with α4 in the yeast two-hybrid system. […]

Where no end group is shown, it is not given here.

Turning to “B-Box1: peptide derived from the MID1 domain that is responsible for α4 binding (amino acids 108-165), expressed from plasmid (ANTMTSAEKVLCQFCDQDPAQDAVKTCVTCEVSYCDECLKATHPNKKPFTGHRLIEPI; cysteine pairing not given here; also: myc tag; UniProt O15344 108-165, looked up, fragment)”, the “Ratio between phosphorylated and dephosphorylated hFused-form” value was 3 in assay [1] (FIG. 15c, control 10.3) and 3 in assay [1] (FIG. 16c, reproduction, control 8.3). Further, the patched message entry in assay [2] is listed as “significant reduction of the patched message”. Moreover, the “Interaction with α4” value in assay [3] is reported as “sufficient for a strong interaction with α4”.

The record behind these values is patent publication US8202696B2, “Means for use in treating diseases correlated with or caused by non-physiological levels of microtubule-associated PP2Ac” (Max-Planck-Gessellschaft zur Forderung der Wissenschaften …, priority 2002, dated 2012).
